# Measurements: US12077599 (SEOUL NATIONAL UNIVERSITY R AND DB FOUNDATION NATIONAL …, dated 2024)
# T1: ROS1 synthetic peptide (amino acids 39-56 of ROS1 combined to GGGC) conjugated to BSA (human, not fully specified; conjugated to bovine serum albumin (BSA) or ovalbumin (OVA))
# T1 peptide: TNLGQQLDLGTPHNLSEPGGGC
# B1: alanine-substituted ROS1-hFc fusion protein, Gly42 replaced with alanine (Fc fusion, not shown: a dimerising Fc or GST; small tags and cut ends)
# chain: CVTNLAQQLDLGTPHNLSEPCIQGCHFWNSVDQKNCALKCRESCEVGCSSAEGAYEEEVLENADLPTAPFASSIGSHNMTLRWKSANFSGVKYIIQWKYAQLLGSWTYTKTVSRPSYVVKPLHPFTEYIFRVVWIFTAQLQLYSPPSPSYRTHPHGVPETAPLIRNIESSSPDTVEVSWDPPQFPGGPILGYNLRLISKNQKLDAGTQRTSFQFYSTLPNTIYRFSIAAVNEVGEGPEAESSITTSSSAVQQEE
# notes: One of the 13 single alanine mutants from Gly42 to Ser54; also called G42A
# B2: alanine-substituted ROS1-hFc fusion protein, Gln43 replaced with alanine (Fc fusion, not shown: a dimerising Fc or GST; small tags and cut ends)
# chain: CVTNLGAQLDLGTPHNLSEPCIQGCHFWNSVDQKNCALKCRESCEVGCSSAEGAYEEEVLENADLPTAPFASSIGSHNMTLRWKSANFSGVKYIIQWKYAQLLGSWTYTKTVSRPSYVVKPLHPFTEYIFRVVWIFTAQLQLYSPPSPSYRTHPHGVPETAPLIRNIESSSPDTVEVSWDPPQFPGGPILGYNLRLISKNQKLDAGTQRTSFQFYSTLPNTIYRFSIAAVNEVGEGPEAESSITTSSSAVQQEE
# notes: also called Q43A
# B3: alanine-substituted ROS1-hFc fusion protein, Asp46 replaced with alanine (Fc fusion, not shown: a dimerising Fc or GST; small tags and cut ends)
# chain: CVTNLGQQLALGTPHNLSEPCIQGCHFWNSVDQKNCALKCRESCEVGCSSAEGAYEEEVLENADLPTAPFASSIGSHNMTLRWKSANFSGVKYIIQWKYAQLLGSWTYTKTVSRPSYVVKPLHPFTEYIFRVVWIFTAQLQLYSPPSPSYRTHPHGVPETAPLIRNIESSSPDTVEVSWDPPQFPGGPILGYNLRLISKNQKLDAGTQRTSFQFYSTLPNTIYRFSIAAVNEVGEGPEAESSITTSSSAVQQEE
# notes: also called D46A
# B4: alanine-substituted ROS1-hFc fusion protein, Gln44 replaced with alanine (Fc fusion, not shown: a dimerising Fc or GST; small tags and cut ends)
# chain: CVTNLGQALDLGTPHNLSEPCIQGCHFWNSVDQKNCALKCRESCEVGCSSAEGAYEEEVLENADLPTAPFASSIGSHNMTLRWKSANFSGVKYIIQWKYAQLLGSWTYTKTVSRPSYVVKPLHPFTEYIFRVVWIFTAQLQLYSPPSPSYRTHPHGVPETAPLIRNIESSSPDTVEVSWDPPQFPGGPILGYNLRLISKNQKLDAGTQRTSFQFYSTLPNTIYRFSIAAVNEVGEGPEAESSITTSSSAVQQEE
# notes: also called Q44A
# What was measured:
# bovine serum albumin = target: T2, bovine serum albumin (bovine, UniProt P02769 25-607); assay: ELISA, BSA coated, ROS1-hFc mutant in solution, HRP anti-hFc
# T2 construct: Negative control coating in the alanine scanning ELISA; also called BSA
# Experimental: (§1) For alanine scanning mutagenesis of the 3B20 scFv, microtiter plates (Corning Costar) were coated with 100 ng of the 3B20 scFv-Cκ fusion protein, BSA, or the irrelevant scFv-Cκ fusion protein overnight at 4° ° C. After blocking, the plates were incubated with alanine-substituted ROS1-human antibody Fc (hFc) fusion proteins (each amino acid residue from the 42th amino acid residue (Gly) to the 54th amino acid residue (Ser) was replaced with alanine) or a wild type ROS1-hFc fusion protein. The amount of bound fusion protein was determined using an HRP-conjugated rabbit anti-human IgG Fc antibody (Thermo Fisher Scientific, Rockford, IL, USA).
# (§2) Example 2. Epitope Mapping of the 3B20 scFv by Alanine Scanning Mutagenesis Assay To further confirm the epitope of the 3B20 scFv, alanine scanning mutagenesis assay was performed using recombinant ROS1 proteins corresponding to amino acids 37-290. First, alanine-substituted ROS1 mutants in which any one of amino acid residues from Gly42 to Ser54 of ROS1 was substituted were prepared. After coating the microtiter plate well with the 3B20 scFv-Cκ fusion protein, BSA or irrelevant scFv-Cκ fusion protein, the plate was incubated with the alanine-substituted ROS1-hFc fusion protein or wild-type ROS1-hFc fusion protein. The amount of the ROS1-hFc fusion protein combined to the plate was measured using the HRP-conjugated anti-hFc antibody and ATBS solution. The obtained result was shown in FIG. 2a (3B20 scFv-Cκ fusion protein coating), 2b (BSA coating) and 2c (irrelevant scFv-Cκ fusion protein coating).
# [1] = target: T1, ROS1 synthetic peptide (amino acids …); assay: phage ELISA after five rounds of biopanning on the peptide conjugate
# Text: Three White Leghorn chickens were immunized and boosted three times with the synthetic peptide ([…] […] (SEQ ID NO: 16); fusion polypeptide in which the 39th to 56th amino acid regions of ROS1 (GenBank Accession No. NP_002935.2) combined to "GGGC") conjugated to keyhole limpet hemocyanin (Peptron; Daejun, S. Korea). A phage display of a chicken single-chain variable fragment (scFv) antibody library was constructed [See C. F. Barbas, Phage Display: a Laboratory Manual, Cold Spring Harbor Laboratory Press, Cold Spring Harbor, N Y, 2001]. After five rounds of biopanning on the ROS1 synthetic peptide ([…]-[…]) conjugated to either bovine serum albumin (BSA) or ovalbumin (OVA), the single-chain variable fragment (scFv)-displaying phages were subjected to enzyme-linked immunosorbent assay (ELISA) [See C. F. Barbas, Phage Display: a Laboratory Manual, Cold Spring Harbor Laboratory Press, Cold Spring Harbor, N Y, 2001; S. Park, D. H. Lee, J. G. Park, Y. T. Lee, J. Chung, A sensitive enzyme immunoassay for measuring cotinine in passive smokers, Clin. Chim. Acta 411 (2010) 1238-1242].
# [2] = target: B1; assay: alanine scanning ELISA, 3B20 scFv-Cκ coated, ROS1-hFc mutant in solution, HRP anti-hFc
# Experimental: as §1, §2
# [3] = target: B2; assay: as above
# Experimental: as §1, §2
# [4] = target: B4; assay: as above
# Experimental: as §1, §2
# [5] = target: B3; assay: as above
# Experimental: as §1, §2
# [6] = target: T3, Stress-70 protein, mitochondrial (GRP75), from HEK293T cell lysate (human, UniProt P38646 47-679); assay: immunoprecipitation with 3B20 scFv-rFc from HEK293T lysates, LC-MS of the 70 kDa band
# T3 construct: Identified by LC-MS/MS against the IPI human database; also called IPI00007765 (+1)
# Experimental: (§3) HEK293T cell lines overexpressing either ROS1 or GFP were lysed in cold lysis buffer [1% Triton X-100, 150 mM NaCl, 50 mM Tris (pH 8.0)] containing 1 mM phenylmethane sulfonyl fluoride (Merck KGaA, Darmstadt, Germany) a protease inhibitor cocktail (Roche), and a phosphatase inhibitor cocktail (Roche). Lysates were incubated with 3B20 scFv or 3B20 scFv-G1K fused to the rFc fusion protein (5 μg/mL) and protein A-conjugated agarose beads (RepliGen, Waltham, MA, USA). After washing, proteins bound to beads were eluted by boiling in NuPAGE LDS Sample Buffer (Thermo Fisher Scientific) and subjected to SDS-PAGE and immunoblotting (See Reference example 4). The eluted proteins separated by SDS-PAGE were visualized using Coomassie Brilliant Blue R250 (Merck). […]
# (§4) To investigate the proteins reactive to 3B20 scFv, immunoprecipitation was performed using a 3B20 scFv-rFc fusion protein from HEK293T cells transfected with lentiviral vector encoding human ROS1 (full-length) or GFP (control). […] Bands corresponding to 70 kDa and 260 kDa were excised from the gel and analyzed by liquid chromatography/MS. The obtained result was shown in FIG. 1c, and the list of proteins analyzed in (A) and (B) bands represented by arrows in FIG. 1c was shown in the following Table 2. As expected, ROS1 (accession number: IPI0028965; SEQ ID NO: 9) was detected in a band of 260 kDa.
# [7] = target: T4, Heat shock 70 kDa protein 1A/1B, from HEK293T cell lysate (human, UniProt P0DMV8 2-641); assay: as above
# T4 construct: Identified by LC-MS/MS against the IPI human database; also called Hsp70; HSP70
# Experimental: as §3, §4
# T2 sequence (P02769 25-607 limits assumed): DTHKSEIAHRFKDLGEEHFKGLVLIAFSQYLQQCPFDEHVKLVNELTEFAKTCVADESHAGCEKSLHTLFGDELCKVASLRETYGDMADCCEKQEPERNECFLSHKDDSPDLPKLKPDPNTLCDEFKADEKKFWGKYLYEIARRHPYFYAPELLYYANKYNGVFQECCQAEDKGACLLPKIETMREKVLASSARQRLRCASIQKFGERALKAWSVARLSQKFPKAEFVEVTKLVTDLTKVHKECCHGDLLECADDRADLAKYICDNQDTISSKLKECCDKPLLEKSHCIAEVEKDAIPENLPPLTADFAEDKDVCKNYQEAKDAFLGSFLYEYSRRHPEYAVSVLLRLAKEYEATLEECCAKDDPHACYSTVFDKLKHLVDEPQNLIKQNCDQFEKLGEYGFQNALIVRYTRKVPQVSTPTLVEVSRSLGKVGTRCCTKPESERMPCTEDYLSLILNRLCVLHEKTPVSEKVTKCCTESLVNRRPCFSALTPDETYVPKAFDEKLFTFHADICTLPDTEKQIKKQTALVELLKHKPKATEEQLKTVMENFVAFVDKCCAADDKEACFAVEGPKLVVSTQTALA
# T4 sequence (P0DMV8 2-641 limits assumed): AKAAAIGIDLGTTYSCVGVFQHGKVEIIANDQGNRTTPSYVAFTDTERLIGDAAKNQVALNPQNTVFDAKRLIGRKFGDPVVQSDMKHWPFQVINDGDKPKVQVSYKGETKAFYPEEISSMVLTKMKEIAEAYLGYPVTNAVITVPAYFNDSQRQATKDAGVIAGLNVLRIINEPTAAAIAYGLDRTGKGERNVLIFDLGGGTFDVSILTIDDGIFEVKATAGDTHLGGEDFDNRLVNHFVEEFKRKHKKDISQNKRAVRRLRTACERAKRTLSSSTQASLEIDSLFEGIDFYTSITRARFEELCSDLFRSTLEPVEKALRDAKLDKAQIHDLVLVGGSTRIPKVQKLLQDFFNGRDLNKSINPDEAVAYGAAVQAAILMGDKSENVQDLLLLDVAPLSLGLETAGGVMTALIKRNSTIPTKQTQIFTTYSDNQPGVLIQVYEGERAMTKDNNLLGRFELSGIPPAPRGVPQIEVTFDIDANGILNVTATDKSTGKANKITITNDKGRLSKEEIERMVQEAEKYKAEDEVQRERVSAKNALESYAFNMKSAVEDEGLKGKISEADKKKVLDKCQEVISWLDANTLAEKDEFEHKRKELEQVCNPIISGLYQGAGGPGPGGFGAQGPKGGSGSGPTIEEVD
# T3 sequence (P38646 47-679 limits assumed): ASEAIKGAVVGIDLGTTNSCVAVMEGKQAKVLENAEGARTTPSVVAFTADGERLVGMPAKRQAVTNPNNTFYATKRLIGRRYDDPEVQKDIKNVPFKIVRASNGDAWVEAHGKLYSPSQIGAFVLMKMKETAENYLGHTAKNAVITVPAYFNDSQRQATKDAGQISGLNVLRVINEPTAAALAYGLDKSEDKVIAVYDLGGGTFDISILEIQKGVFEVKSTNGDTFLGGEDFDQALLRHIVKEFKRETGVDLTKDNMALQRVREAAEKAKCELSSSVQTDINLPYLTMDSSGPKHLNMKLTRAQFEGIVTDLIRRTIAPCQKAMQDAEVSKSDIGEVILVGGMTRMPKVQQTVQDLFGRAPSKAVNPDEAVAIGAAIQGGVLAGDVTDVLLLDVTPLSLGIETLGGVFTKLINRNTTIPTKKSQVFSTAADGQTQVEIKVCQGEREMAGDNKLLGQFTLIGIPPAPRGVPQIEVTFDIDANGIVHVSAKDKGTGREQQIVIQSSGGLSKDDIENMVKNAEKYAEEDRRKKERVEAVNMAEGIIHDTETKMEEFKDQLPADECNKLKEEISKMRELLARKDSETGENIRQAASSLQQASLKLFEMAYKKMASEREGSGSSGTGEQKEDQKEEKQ
Binder,binding result (bovine serum albumin),also measured
B1,no binding,–
"alanine-substituted ROS1-hFc fusion protein, L47A mutant (Fc fusion, not shown: a dimerising Fc or GST; small tags and cut ends, also called L47A mutant of ROS1 protein) CVTNLGQQLDAGTPHNLSEPCIQGCHFWNSVDQKNCALKCRESCEVGCSSAEGAYEEEVLENADLPTAPFASSIGSHNMTLRWKSANFSGVKYIIQWKYAQLLGSWTYTKTVSRPSYVVKPLHPFTEYIFRVVWIFTAQLQLYSPPSPSYRTHPHGVPETAPLIRNIESSSPDTVEVSWDPPQFPGGPILGYNLRLISKNQKLDAGTQRTSFQFYSTLPNTIYRFSIAAVNEVGEGPEAESSITTSSSAVQQEE",no binding,–
"alanine-substituted ROS1-hFc fusion protein, L45A mutant (Fc fusion, not shown: a dimerising Fc or GST; small tags and cut ends, also called L45A mutant of ROS1 protein) CVTNLGQQADLGTPHNLSEPCIQGCHFWNSVDQKNCALKCRESCEVGCSSAEGAYEEEVLENADLPTAPFASSIGSHNMTLRWKSANFSGVKYIIQWKYAQLLGSWTYTKTVSRPSYVVKPLHPFTEYIFRVVWIFTAQLQLYSPPSPSYRTHPHGVPETAPLIRNIESSSPDTVEVSWDPPQFPGGPILGYNLRLISKNQKLDAGTQRTSFQFYSTLPNTIYRFSIAAVNEVGEGPEAESSITTSSSAVQQEE",no binding,–
"alanine-substituted ROS1-hFc fusion protein, G48A mutant (Fc fusion, not shown: a dimerising Fc or GST; small tags and cut ends, also called G48A mutant of ROS1 protein) CVTNLGQQLDLATPHNLSEPCIQGCHFWNSVDQKNCALKCRESCEVGCSSAEGAYEEEVLENADLPTAPFASSIGSHNMTLRWKSANFSGVKYIIQWKYAQLLGSWTYTKTVSRPSYVVKPLHPFTEYIFRVVWIFTAQLQLYSPPSPSYRTHPHGVPETAPLIRNIESSSPDTVEVSWDPPQFPGGPILGYNLRLISKNQKLDAGTQRTSFQFYSTLPNTIYRFSIAAVNEVGEGPEAESSITTSSSAVQQEE",no binding,–
B2,no binding,–
B3,no binding,–
B4,no binding,–
"3B20 scFv (phage-displayed clone) (scFv, the phage coat fusion is not described) scFv: LTQPSSVSANLGGTVKITCSGGSYGYGWYQQKAPGSAPVTVIYDNTNRPSDIPSRFSGSKSGSTGTLTITGVQVEDEAVYYCGSADSSSIATFGAGTTLTVLGQSSRSSGGGGSSGGGGSAVTLDESGGGLQTPGGTLSLVCKASGFSFSDRGMHWMRQAPGKGLEYVGAISGDGYITHYGAAVKGRATISRDNGQSTVRLQLNNLRAEDTATYYCTRGGGGNIDAWGHGTEVIVSSTS",–,binding result [1]: binds
"3B20 scFv-Cκ fusion protein (scFv, Coated on the plate in the alanine scanning ELISA; not shown: human kappa light chain constant region (Cκ)) LTQPSSVSANLGGTVKITCSGGSYGYGWYQQKAPGSAPVTVIYDNTNRPSDIPSRFSGSKSGSTGTLTITGVQVEDEAVYYCGSADSSSIATFGAGTTLTVLGQSSRSSGGGGSSGGGGSAVTLDESGGGLQTPGGTLSLVCKASGFSFSDRGMHWMRQAPGKGLEYVGAISGDGYITHYGAAVKGRATISRDNGQSTVRLQLNNLRAEDTATYYCTRGGGGNIDAWGHGTEVIVSSTS",–,binding result [2]: binds; binding result [3]: binds; binding result [4]: binds; binding result [5]: binds
"3B20 scFv-rFc fusion protein (Fc fusion, rabbit, domain: fragment crystallizable region Fc (rFc); scFv fused with rabbit Fc, expressed from modified pCEP4; also called 3B20-rFc; scFv(3B20)-rFc fusion protein; not shown: rabbit antibody fragment crystallizable region Fc (rFc)) LTQPSSVSANLGGTVKITCSGGSYGYGWYQQKAPGSAPVTVIYDNTNRPSDIPSRFSGSKSGSTGTLTITGVQVEDEAVYYCGSADSSSIATFGAGTTLTVLGQSSRSSGGGGSSGGGGSAVTLDESGGGLQTPGGTLSLVCKASGFSFSDRGMHWMRQAPGKGLEYVGAISGDGYITHYGAAVKGRATISRDNGQSTVRLQLNNLRAEDTATYYCTRGGGGNIDAWGHGTEVIVSSTS",–,binding result [6]: binds; binding result [7]: binds
